Earlier results, collected in PMC3345106.

Target: Cys34 (UniProt position 58, QYLQQCPFEDH)
Details: HSA thiol in earlier reports, compared by the authors with their FA-free value

## Human serum albumin (HSA) (Homo sapiens)
  pKa: ~8
